Test results as given in patent US12698495B2, “Engineered tryptophan decarboxylases and uses thereof for synthesizing tryptamine analogs” (priority 2022, dated 2026).

Experiments:
serotonin receptor = settings: known from literature (ref. 43); cited from earlier work
[1] = cited from earlier work
[2] = PfTrpB variant activity and promiscuity; type: biochemical, Pyrococcus furiosus

For `COc1ccc2[nH]cc(CCN)c2c1` [5-OMe-tryptamine], the serotonin receptor activity (serotonin receptor) is given as “agonists”.

In the case of `CCOc1ccc2[nH]cc(CCN)c2c1` [5-OEt-tryptamine], the serotonin receptor activity (serotonin receptor) is given as “agonists”.

B1: 2B9: engineered PfTrpB variant 2B9, SEQ ID NO:3 (protein, listed as Pyrococcus furiosus)
chain: MWFGEFGGQYVPETLVGPLKELEKAYKRFKDDEEFNRQLNYYLKTWAGRPTPLYYAKRLTEKIGGAKVYLKREDLVHGGAHKTNNAIGQALLAKLMGKTRLIAETGAGQHGVATAMAGALLGMKVDIYMGAEDVERQKMNVFRMKLLGANVIPVNSGSRTLKDAINEALRDWVATFEYTHYLIGSVVGPHPYPTIVRDFQSVIGREAKAQILEAEGQLPDVIVACVGGGSNAMGIFYPFVNDKKVKLVGVEAGGKGLESGKHSASLNAGQVGVSHGMLSYFLQDEEGQIKPSHSIAPGLDYPGVGPEHAYLKKIQRAEYVAVTDEEALKAFHELSRTEGIIPALESAHAVAYAMKLAKEMSRDEIIIVNLSGRGDKDLDIVLKASGNVLEHHHHHH
In the case of B1, the “activity with a variety of substrate analogs” value ([1]; 75° C.) is given as “high activity” and the “activity at lower temperatures” value ([1]; lower temperatures than 75° C.) is given as “activity decreases”.

B2: H275E (protein, listed as Pyrococcus furiosus)
chain: MWFGEFGGQYVPETLVGPLKELEKAYKRFKDDEEFNRQLNYYLKTWAGRPTPLYYAKRLTEKIGGAKVYLKREDLVHGGAHKTNNAIGQALLAKLMGKTRLIAETGAGQHGVATAMAGALLGMKVDIYMGAEDVERQKMNVFRMKLLGANVIPVNSGSRTLKDAINEALRDWVATFEYTHYLIGSVVGPHPYPTIVRDFQSVIGREAKAQILEAEGQLPDVIVACVGGGSNAMGIFYPFVNDKKVKLVGVEAGGKGLESGKHSASLNAGQVGVSEGMLSYFLQDEEGQIKPSHSIAPGLDYPGVGPEHAYLKKIQRAEYVAVTDEEALKAFHELSRTEGIIPALESAHAVAYAMKLAKEMSRDEIIIVNLSGRGDKDLDIVLKASGNVLEHHHHHH
With B2 the “activity and promiscuity of PfTrpB variant in SUMS” value [2] was “generally activated” and the “activity of PfTrpB mutant” value ([2]; 75° C.) was “activating”.
